According to the nanobody polyreactivity screen of Harvey et al. (2022):

Assay: yeast display, Sf9 membrane polyspecificity reagent, FACS + sequencing; frameworks hold sequencing errors
Method in brief: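 In a synthetic yeast display library (Saccharomyces cerevisiae BJ5465), nanobody expression was induced with galactose for 36–48 hours. FACS gates were set low and high (top ~1%) using anti-HA fluorescence for expression and streptavidin fluorescence for binding of the Sf9 membrane reagent. Each polyreactivity label is drawn from the gate of origin.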

Sequence | polyreactivity (PSR sort gate)
QVQLEESGGGLVQAGGSLRLSCAASGSIFEWNDMGWSRQAPGKEREFVAAITSTDDGTYYADSVKGRFTISRDNAKNTVYLQMNSLKPEDTAVYYCAKRAWGSPYGYWGQGTQVTVSS | low polyreactivity
QVQLVESGGGLVQAGCSLRLSCAASGSTFSPNAMGWYRQAPGKERELVASIRIGGRTNYADSVKGRFTISRDNAKNTVYLQMNSLKPEDTAVYYCARRHYYSRFTVSKLSRYDYWGQGTQVTVSS | high polyreactivity
QVQLVETGGGLVQAGGSLRLSCAASGSTFRFYVMGWYRQAPGKERELVAAISTSGGSTYYADSVKGRFTISRDTAKNTVYLQMNSLKPEDTAVYYCAADLIASLRPYYQYDYWGQGTQVTVSS | low polyreactivity
QVQLVESWAGLVQAGGSLRLSCAASGIIFHFNDMGWYRQAPGKERELVAAITSGGSTNYADSVKARFTISRDNAKNNVYLQMNSLKPEDTAVYYCAARRGLRLFAYSHGYWGQGSQVTVSS | low polyreactivity
QVQLVESGGGLVQAGGRLRLSCAASGRTILSYAMGWYRQAPAKERELVAAITGSGGRKYYADSVKGRFTISRENAKNTVYLQMNSLKPEDTAVYYCATRWIKGRKMDYWGQGTQVTVSS | high polyreactivity
QVQLVESVGGLVQAGGSLRLSCAASVRTFSSYAMGWYRKPPGKERELVAVITSGSSTHYADSVKGRFTISRDNAKNTVYLQMNSLKPEDTAVYYCAARDIREIDCISYWYDYWGQGTQVTVSS | high polyreactivity
QVQLVESGGGLVQAGGSLRLSCAASGSTFRHNAMGWYRQGPGKERELVATIRTSGGTTYYADSVKGRFTISRDNAKNTVYLQMNSLKPEDTAVYYCAAVSYLFLYQGYPIAYPMYYWGQGTQVTVSS | low polyreactivity
QVQLVESGGGLVQAGGSLRLSCAASGFTFYRYAMGWYRQAPGKERELVAAISSGGRTTYADSVKGRFTISRDNAKNTVYLQMNSLKPEDTAVYYCVFVYVYDYYYWGQGTQVTVSS | high polyreactivity
QVQLVESGGGIVQAGGSLRLSCAASGRIFVRYAKGWYRQAPGKERELVAAITKSGGSTYYADSEKGRFTISRDTAKNTVYLQMNCLQPDDTAVYYCNADRFYIDYTNTYDSIRDYWGQGTLVTVSS | low polyreactivity
QVQLVESGGGLVQAGGSLRLSCAASGIIFQVYAMGWYRQAPGKERELVAAISDDGSTNYADSVQGRFTISRDNAKNTGYLQMNSLKPEDTAVYYCAKDSWGRLYYRYDYWGQGTQVTVSS | low polyreactivity
QVQLVESGGGLVQAGGSLRLSCAASGLIFLWYAMGWYRQAPGKERELVAAIRSSGDSTYYADSVKGRFTISRDNAKNTVYLQMNSLKPEDTAVYYCNRRKTNSRYDYWGQGTQVTVSS | low polyreactivity
QVQQQESGGGLVQAGVSLRLSWAASGTIFQLTVMGRYRQAPGKEREVVASIDYGGNTNYADSVKGRFTISRDNAKNTVYRQMNSLKPEDTAVYYCAASSDSSTTHPYWGQGTHVTVSS | low polyreactivity
QVQLVESGVGLVQAGGSLSITCAASGRTFAGNSMGSYRQAPGKERELVAAISQGGGSTYYADSVKGRFTISRDNAKNTVYLQMNSRKAEDTAVYYCAAEIPRRWASFATQWYDYWGLGTQVTVSS | low polyreactivity
QVQLVESGGGLVQAGGSLRLSSAASGSTFAFNAMGWYRHAHGKEREFVARITWSDGSTYYADSVKGRFTISRDNAKNTVYLQMNCLKPEDTAVYYCARDPTEQAIARWTYDYWGQGTQVTVSS | low polyreactivity
QVQLVESGGGLVQAGGSLRLSCAASGSILYPNAMGWYRQAPGKERELVAAISTSGGSTYYADSVKGRFTLSRDNAKNTVYLQMNSLKPEDTAVYYCAKGWIYYSTWISEYWGQGTQVTVSS | low polyreactivity
QVQLVESGRALVQAGGSLRLSCASSVRIFVRNAMGWYRQAPGKESELVAAISARGGRTNYADSVKGRFTISRDNAKNTVYLQMNSLKPDDTAVYYCAAVGFRAAYLYDYWGQGTQVTVSS | high polyreactivity
QVQLVETGGGLVQAGGSLRLSCAHSGSIFASNAMGWYRHAPGKEREFVAAIRYSGGITYYADSVKGRFTISRDNAKNTVYLQMTSLKPEDTAVYYCAAYGWGNRWYSRFDYWGQGTQVTVSS | high polyreactivity
QVQLVESGGGLVQAGGSLRLSCAASGSILYGNDMGWYRQAPGKERELVANITSSDSTYYADSVKGRFTISRDNAKNTVYLQMNSLKPEDTAVYYCASDDVGWGYYVYSYPYDYWGQGTQVNVSS | low polyreactivity
QVQLVESGGGLVQAGGSLRLSCAASGFTFFSNAMGWYRQAPGKERELVASITNDGSTDADSVKGRFTISRDNAKNTVYLQMNSLKPEDTAVYYCAADFYLWRLPVYAQRYFVRGDYWGQGTQVTVSS | low polyreactivity
QVQLVESGGGLVQAGGSLRLSCAASGNTIGKYAMGWYRQAPGKETELVATITRRGGSTYYADSVKGRFTISRDNAKNTVYLQMNSLKPEDTAVYYCNRAVTYGTYDYWGQGTQVTVSS | high polyreactivity
QVQLVESGGGLVQAGGSLRLSCAASGSIVVPYTMGWYRQAPGKEMELVAAINSSDDSTFYADSVKGRFTISRENAKNTVYIKMNSLKPEDTAVYYCNATGYARWYTGDYWGQGTQVTVSS | low polyreactivity
QVQLVESGGGLVQAGGSLRLSCAASGSISSKNAMGWYRQPPGKERQFDAVISGTGGSTYYADSVKGRFTISRDNAKNTVYLQMNSLKPEDTAVYYCAAAASSIVSYGYTWTYGYWGLGTQVTVSS | low polyreactivity

Sequence | polyreactivity (PSR sort gate)
QVHLVESAGGLVQAAASLRLTCSASGNTLGSYAMGWYIQAPGKETKFVATISKRGGSTYYADSVKGRFTISRDNAKNTVYFQMNSLKPEDSAVYYCAAEDEYYGGDEYWGQGTQVTVSS | high polyreactivity
QVQLVESGGGLVQAGGSLRLSCAASGRTFRRYAMGWYRQAPGKERELVAVISGGGTYYADSVKGRFTISRDNAKNTVYLQMNSLKPEDTAVYYCATDSYSSLYGYDYWGQGTQVTVSS | high polyreactivity
QVQLVESGGGLVQAGGSLRLSCAASGLTFVYYAMGWYRQAPGKERELVASISSTGRTYYADSVKGRFTISRDNAKNTVYLQMNSLKPEDTAVYFSAARSTYFKADYWGQGTQVTVSS | high polyreactivity
QVQLVESGGGLVQAGGSLRLSCAASGITFSHYAMGWYRQAPGKERELVAGITWSGGRTYYADSVKGRFTISRDNAKNTVYLQMNSLKPEDTAVYYCAPIHRTGYDMDYWGQGTQVTVSS | low polyreactivity
QVQLVESGGGLVQAGGSLRLSCAASGFTFTYYAMGWYRQAPGKERELVAVISSAGSTYYADSVKGRFTISRDNAKNTVYLQMNSLKPEDTAVYYCNAVGRYYSSGRYGHWGQGTQVTVSS | high polyreactivity
QVQLVESGGGLVQAGGSLRLSSAASGITFIRYAMGWYSQAPGKERELVAAISSGGSTNYADSVKGRFTISRDNAKNTVYLQMNSLKPEDTAVYYCAARYYWSFAYDYWGQGTQVTVSS | low polyreactivity
QVQLVESGGGLVQAGGSLRLSCAASGNTLDWYAMGGSRQAPGKERELVAAISSAGSTSYADSVKGRFTISRDNAKNTVYLQMNSLKPEDTAVYYCNVDVYSKDANFQSFASEYDYWGQGTQVTVSS | low polyreactivity
QVQLVESGGGLVQAGGSLRLSCAASGSIFVLYAMGWYRQAPGKERELVAAITASGGSTHYADSVKGRFTISRDNAKNTVYLQMNSLKPEDTAVYYCNADVYTEYDYWGQGTQVTVSS | low polyreactivity
QVQLVESGGGLVQAGGSLRLSCAASGRIFRSYAMGWYRQAPGKERELVAAINYGGTSTYYADSVKGRFTISRDNAKNTVYLQMNSLKPEDTAVYYCAARRPTSPRRYESRGQGTQVTVSS | high polyreactivity
QVQLVESGGGLVQAGGSLRLSCAASGFIFTRYAMGWYRQAPGKERELVAAITRSGGRTYYADSVKGRFTISRDNAKNTVYLQMNSLKPEDTAVYYCAAEGSVGLYGLIMHYWGQGTQVTVSS | high polyreactivity
QVHLVESGGGLVQAGGSLRLSCAASGRIYPYPMGWYRQAPGKERELVAAITSRGGTTYYADSVKGRFTISRDNAKNTDYVQMNSLKPEDTAVYYCNKRPWWWGGDDYWGQGTQVTVSS | low polyreactivity
QVQLVESGGGLVQAGGSLRLSCAASGSTFRTYTMGWYRQAPGKERELVAAGGGTYYADSVKGRFTISRDNAKNTVYLQMNSLKPEDTAVYYCAAGLPIHGLRGYEYDYWGQGTQVTVSS | low polyreactivity
QVQLVESGGGLVQAGGSLRLSCAASGGTFHRNAMGWYRQAPGKERELVAAITSSGGSTNYADSVKGRFTISRDNAKYTVYLQMNSLKPEETAVYYCATDRYRYTSHPWSRGFDYLGQGTQVTVSS | low polyreactivity
QVQLVESGGGLVQAGGSLRLSCAASGSTFSSNAMGWYRQAPGKEREFVAAISRRTGSTYYADSVKGRFTISRDNANNTVYLQMNSLKPEDTAVYYSAATGEKLARSSFGYWGQGTQVTVSS | low polyreactivity
QVQLVESGGGLVQAGGSLRLSCAASGITLLGNTMGWYRQAPGKERELVAAIRTNSGRTYYADSVKGRFTISRDNAKNTVYLQMNSLKPEDTAVYYCAKRYFSYLGREMDYWGQGTQVTVSS | high polyreactivity
QVQLVESGGGLVQAGGSLRLSCAASGRIFYYYAMGWYRQAPGKERELVAVISRGGRTKYADSVKGRFTISRDNAKNTVYLQMNSLKPEDTAVYYCAVGLSGASSGMGYWGQGTQVTVSS | high polyreactivity
QVQLVESGGGLVQAGGSLRLSCAASGITFQYYAMGWYRQAPGKERELVAAITKRGGSTYYADSVKGRFTISRDNAKNTVYLQMTSLKPEETAVYYCAADLGGNSRLDYWGQGTQVTVSS | high polyreactivity
QVQLVESGGGLVQAGGSLRLSCAASGSIFWLYAMGWYRQAPGKERELVATISSTGSTDYADSVKGRFTISRDNAKNTVYLQMNSLKPEDTAVYYCATDVFYSIFTPSPFEYDYWGQGTQVTVSS | high polyreactivity
QVQHVESGGGLVQAGGSLRLSCAASGSIFRRYTMGWYRQAPGKERELVAAISRVGNTNYADSVKGRFTISRDNAKNTVYLQMNSLKPEDTAVYYCAARAIGYRYTPGLNYWGQGTQVTVSS | high polyreactivity
QVQLVESGGGLVQAGGSLRLSCPASGSISRQYAMGWYRQAPGKERELVAAITVRGGSTYYADSVKGRFTISRDNAKNTVYLQMNSLKPEDTAVYYCAKYTRYSASYDYWGQGTQVTVSS | high polyreactivity
HVQLVESGGGLVQAGGSLRLSCAASGRIFVDYVMGWYRQAPGKERELVARITWIGGNTYYADSVKGRFTISRDNAKNTVYFQMNCLKPEDTAVYYSNAGLTLLSRRHEGWYGDDYWGPGTQVTVSS | low polyreactivity
